Assay results reported in patent US20250263444A1 (KOREA UNIVERSITY RESEARCH AND BUSINESS FOUNDATION SEJONG …, published 2025).

B1: Kaposi's sarcoma-associated herpesvirus (KSHV) viral interferon regulatory factor 3 (vIRF3), wild type (other)
chain: MAGRRLTWISEFIVGALDSDKYPLVKWLDRSTGTFLAPAARNDVIPLDSLQFFIDFKRECLSKGLHPRDLLGSPITAFGKICTTSRRLRRLPGEEYEVVQGINCRRWRLLCAEVKECWWCVHARTHLHSGSSLWEILYQHSVRLEKHRRRPRPFVGENSDSSEEDHPAFCDVPVTQTGAESEDSGDEGPSTRHTASGVQPVDDANADSPGSGDEGPSTRHSDSQPPPADEPTVHTDNVEDDLTLLDKESACALMYHVGQEMDMLMRAMCDEDLFDLLGIPEDVIATSQPGGDTDASGVVTEGSIAASAVGAGVEDVYLAGALEAQNVAGEYVLEISDEEVDDGAGLPPASRRRPVVGEFLWDDGPRRHERPTTRRIRHRKLRSAYYRVARPPVMITDRLGVEVFYFGRPAMSLEVERKVFILCSQNPLADISHSCLHSRKGLRVLLPKPDDNNTGPGDVNLLAAVLRSFASGLVIVSLRSGIYVKNLCKSTVLYHGNNPPKKFGVICGLSSRAVLDVFNVAQYRIQGHEHIKKTTVFIGGDPTSAEQFDMVPLVIKLRLRSVTCDD
B2: pyruvate kinase M2 (PKM2) (enzyme)
chain: not shown
notes: Either endogenous PKM2 of LECs or HA-tagged hPKM2 from pCMV-HA-hPKM2 in 293T cells; also called PMK2; hPKM2

Columns and labels:
[1] = molecular target: B2; experiment: cell-based or functional assay
vIRF3 (Δ250-280) mutant = molecular target: T1, vIRF3 (Δ250-280) mutant (Kaposi's sarcoma-associated herpesvirus …, UniProt F5HIC6 1-566); experiment: told in words; LECs expressing the mutant
T1 construct: V5-tagged, stably expressed in LECs; also called V5/vIRF3(Δ250-280); V5-vIRF3(Δ250-280)
T1 sequence: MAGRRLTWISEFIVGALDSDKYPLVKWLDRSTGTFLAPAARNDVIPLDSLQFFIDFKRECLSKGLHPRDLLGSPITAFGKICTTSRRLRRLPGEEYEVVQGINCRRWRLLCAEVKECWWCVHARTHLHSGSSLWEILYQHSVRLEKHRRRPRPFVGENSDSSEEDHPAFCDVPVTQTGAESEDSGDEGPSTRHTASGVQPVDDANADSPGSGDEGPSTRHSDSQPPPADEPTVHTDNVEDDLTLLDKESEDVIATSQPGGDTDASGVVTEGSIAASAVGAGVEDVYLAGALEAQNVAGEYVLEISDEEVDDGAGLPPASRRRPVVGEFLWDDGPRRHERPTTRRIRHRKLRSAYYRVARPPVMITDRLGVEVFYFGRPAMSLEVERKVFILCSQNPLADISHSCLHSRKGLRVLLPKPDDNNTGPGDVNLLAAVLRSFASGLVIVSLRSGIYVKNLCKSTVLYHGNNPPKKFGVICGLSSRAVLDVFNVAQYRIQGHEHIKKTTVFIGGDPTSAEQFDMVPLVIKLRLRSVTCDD

[2] = molecular target: T2, vIRF3 mutant with deleted aa250-260 (Kaposi's sarcoma-associated herpesvirus …, UniProt F5HIC6 1-566); experiment: IP with anti-PKM2, blot with anti-V5, LEC lysates
T2 construct: V5-tagged, expressed in LECs; end of the protein at 566 from the TM3 range (430-566); also called vIRF3(Δ250-260)
T2 sequence: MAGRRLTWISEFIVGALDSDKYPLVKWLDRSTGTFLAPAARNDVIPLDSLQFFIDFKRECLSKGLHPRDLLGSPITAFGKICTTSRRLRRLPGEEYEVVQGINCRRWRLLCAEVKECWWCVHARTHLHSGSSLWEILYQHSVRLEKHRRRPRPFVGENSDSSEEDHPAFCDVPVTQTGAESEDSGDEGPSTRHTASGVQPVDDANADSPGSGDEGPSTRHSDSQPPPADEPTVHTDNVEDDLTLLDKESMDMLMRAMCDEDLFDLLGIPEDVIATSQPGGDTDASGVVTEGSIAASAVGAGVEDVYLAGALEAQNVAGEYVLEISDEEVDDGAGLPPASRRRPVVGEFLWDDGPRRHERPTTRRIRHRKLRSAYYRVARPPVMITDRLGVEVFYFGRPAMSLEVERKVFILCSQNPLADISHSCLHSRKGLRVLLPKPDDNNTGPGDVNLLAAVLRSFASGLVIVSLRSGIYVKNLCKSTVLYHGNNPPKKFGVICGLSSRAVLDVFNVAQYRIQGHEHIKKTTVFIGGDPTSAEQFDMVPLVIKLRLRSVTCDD

Binder | Boyden chamber cell migration of LECs [1] | binding result (vIRF3 (Δ250-280) mutant) | binding result [2]
B1 | 2 fold | – | –
B2 | – | no binding | no binding
